Drawing on US20220064276A1, this text covers IC50 (CAGA12 luciferase) for 20 molecules.

B1: SR-AB47-HuFab (Fab, V domains shown)
VH: QVQLVESGGGVVQPGRSLRLSCAASGFTFRSYVMHWVRQAPGKGLEWVAVISHEGSGKYYADSVKGRFTISRDNSKNTLYLQMNSLRAEDTAVYYCARPRIAARRGGFGSWGQGTLVTVSS
VL: NFMLTQPHSVSESPGKTVTISCTRSSGNIDYNYVQWYQQRPGSSPTTVIYEDNVRPSGVPDRFSGSIDSSSNSASLTISGLKTEDEADYYCQSYDYDNQAVVFGGGTKLTVL
B2: SR-AB53-HuFab (Fab, V domains shown)
VH: QVQLVESGGGVVQPGRSLRLSCAASGFTFRSYVMHWVRQAPGKGLEWVAVISHEGSGKYYADSVKGRFTISRDNSKNTLYLQMNSLRAEDTAVYYCARPRIAARRGGFGTWGQGTLVTVSS
VL: NFMLTQPHSVSESPGKTVTISCTRSSGNIDYNYVQWYQQRPGSSPTTVIYEDNVRPSGVPDRFSGSIDSSSNSASLTISGLKTEDEADYYCQGYDWDTQGVVFGGGTKLTVL
B3: SR-AB43-HuFab (Fab, V domains shown)
VH: QVQLVESGGGVVQPGRSLRLSCAASGFTFRSYVMHWVRQAPGKGLEWVAVISHEGSLKYYADSVKGRFTISRDNSKNTLYLQMNSLRAEDTAVYYCARPRIAARRGGFGYWGQGTLVTVSS
VL: NFMLTQPHSVSESPGKTVTISCTRSSGNIDYNYVQWYQQRPGSSPTTVIYEDNVRPSGVPDRFSGSIDSSSNSASLTISGLKTEDEADYYCQSYDSDNQRVVFGGGTKLTVL
B4: SR-AB57-HuFab (Fab, V domains shown)
VH: QVQLVESGGGVVQPGRSLRLSCAASGFTFRSYVMHWVRQAPGKGLEWVAVISHEGSGKYYADSVKGRFTISRDNSKNTLYLQMNSLRAEDTAVYYCALPRIAARRGGFGSWGQGTLVTVSS
VL: NFMLTQPHSVSESPGKTVTISCTRSSGNIDYNYVQWYQQRPGSSPTTVIYEDNVRPSGVPDRFSGSIDSSSNSASLTISGLKTEDEADYYCQGYDWDTQGVVFGGGTKLTVL
B5: SR-AB54-HuFab (Fab, V domains shown)
VH: QVQLVESGGGVVQPGRSLRLSCAASGFTFRSYVMHWVRQAPGKGLEWVAVISHEGSGKYYADSVKGRFTISRDNSKNTLYLQMNSLRAEDTAVYYCALPRIAARRGGFGSWGQGTLVTVSS
VL: NFMLTQPHSVSESPGKTVTISCTRSSGNIDYNYVQWYQQRPGSSPTTVIYEDNVRPSGVPDRFSGSIDSSSNSASLTISGLKTEDEADYYCQSYDSDNQRVVFGGGTKLTVL
B6: SR-AB56-HuFab (Fab, V domains shown)
VH: QVQLVESGGGVVQPGRSLRLSCAASGFTFRSYVMHWVRQAPGKGLEWVAVISHEGSGKYYADSVKGRFTISRDNSKNTLYLQMNSLRAEDTAVYYCALPRIAARRGGFGSWGQGTLVTVSS
VL: NFMLTQPHSVSESPGKTVTISCTRSSGNIDYNYVQWYQQRPGSSPTTVIYEDNVRPSGVPDRFSGSIDSSSNSASLTISGLKTEDEADYYCQSYDYDTQGVVFGGGTKLTVL
B7: SR-AB49-HuFab (Fab, V domains shown)
VH: QVQLVESGGGVVQPGRSLRLSCAASGFTFRSYVMHWVRQAPGKGLEWVAVISHEGSGKYYADSVKGRFTISRDNSKNTLYLQMNSLRAEDTAVYYCARPRIAARRGGFGSWGQGTLVTVSS
VL: NFMLTQPHSVSESPGKTVTISCTRSSGNIDYNYVQWYQQRPGSSPTTVIYEDNVRPSGVPDRFSGSIDSSSNSASLTISGLKTEDEADYYCQGYDWDTQGVVFGGGTKLTVL
B8: SR-AB58-HuFab (Fab, V domains shown)
VH: QVQLVESGGGVVQPGRSLRLSCAASGFTFRSYVMHWVRQAPGKGLEWVAVISHEGSGKYYADSVKGRFTISRDNSKNTLYLQMNSLRAEDTAVYYCALPRIAARRGGFGTWGQGTLVTVSS
VL: NFMLTQPHSVSESPGKTVTISCTRSSGNIDYNYVQWYQQRPGSSPTTVIYEDNVRPSGVPDRFSGSIDSSSNSASLTISGLKTEDEADYYCQSYDSDNQRVVFGGGTKLTVL
B9: SR-AB55-HuFab (Fab, V domains shown)
VH: QVQLVESGGGVVQPGRSLRLSCAASGFTFRSYVMHWVRQAPGKGLEWVAVISHEGSGKYYADSVKGRFTISRDNSKNTLYLQMNSLRAEDTAVYYCALPRIAARRGGFGSWGQGTLVTVSS
VL: NFMLTQPHSVSESPGKTVTISCTRSSGNIDYNYVQWYQQRPGSSPTTVIYEDNVRPSGVPDRFSGSIDSSSNSASLTISGLKTEDEADYYCQSYDYDNQAVVFGGGTKLTVL
B10: SR-AB46-HuFab (Fab, V domains shown)
VH: QVQLVESGGGVVQPGRSLRLSCAASGFTFRSYVMHWVRQAPGKGLEWVAVISHEGSGKYYADSVKGRFTISRDNSKNTLYLQMNSLRAEDTAVYYCARPRIAARRGGFGSWGQGTLVTVSS
VL: NFMLTQPHSVSESPGKTVTISCTRSSGNIDYNYVQWYQQRPGSSPTTVIYEDNVRPSGVPDRFSGSIDSSSNSASLTISGLKTEDEADYYCQSYDSDNQRVVFGGGTKLTVL
B11: SR-AB41 Fab (Fab, V domains shown)
VH: QVQLVESGGGVVQPGRSLRLSCAASGFTFRSYVMHWVRQAPGKGLEWVAVISHEGSLKYYADSVKGRFTISRDNSKNTLYLQMNSLRAEDTAVYYCARPRIAARRGGFGYWGQGTLVTVSS
VL: NFMLTQPHSVSESPGKTVTISCTRSSGNIDNNYVQWYQQRPGSSPTTVIYEDNQRPSGVPDRFSGSIDSSSNSASLTISGLKTEDEADYYCQSYDYDNQAVVFGGGTKLTVL
B12: SR-AB61-HuFab (Fab, V domains shown)
VH: QVQLVESGGGVVQPGRSLRLSCAASGFTFRSYVMHWVRQAPGKGLEWVAVISHEGSGKYYADSVKGRFTISRDNSKNTLYLQMNSLRAEDTAVYYCALPRIAARRGGFGTWGQGTLVTVSS
VL: NFMLTQPHSVSESPGKTVTISCTRSSGNIDYNYVQWYQQRPGSSPTTVIYEDNVRPSGVPDRFSGSIDSSSNSASLTISGLKTEDEADYYCQGYDWDTQGVVFGGGTKLTVL
B13: SR-AB48-HuFab (Fab, V domains shown)
VH: QVQLVESGGGVVQPGRSLRLSCAASGFTFRSYVMHWVRQAPGKGLEWVAVISHEGSGKYYADSVKGRFTISRDNSKNTLYLQMNSLRAEDTAVYYCARPRIAARRGGFGSWGQGTLVTVSS
VL: NFMLTQPHSVSESPGKTVTISCTRSSGNIDYNYVQWYQQRPGSSPTTVIYEDNVRPSGVPDRFSGSIDSSSNSASLTISGLKTEDEADYYCQSYDYDTQGVVFGGGTKLTVL
B14: SR-AB60-HuFab (Fab, V domains shown)
VH: QVQLVESGGGVVQPGRSLRLSCAASGFTFRSYVMHWVRQAPGKGLEWVAVISHEGSGKYYADSVKGRFTISRDNSKNTLYLQMNSLRAEDTAVYYCALPRIAARRGGFGTWGQGTLVTVSS
VL: NFMLTQPHSVSESPGKTVTISCTRSSGNIDYNYVQWYQQRPGSSPTTVIYEDNVRPSGVPDRFSGSIDSSSNSASLTISGLKTEDEADYYCQSYDYDTQGVVFGGGTKLTVL
B15: SR-AB52-HuFab (Fab, V domains shown)
VH: QVQLVESGGGVVQPGRSLRLSCAASGFTFRSYVMHWVRQAPGKGLEWVAVISHEGSGKYYADSVKGRFTISRDNSKNTLYLQMNSLRAEDTAVYYCARPRIAARRGGFGTWGQGTLVTVSS
VL: NFMLTQPHSVSESPGKTVTISCTRSSGNIDYNYVQWYQQRPGSSPTTVIYEDNVRPSGVPDRFSGSIDSSSNSASLTISGLKTEDEADYYCQSYDYDTQGVVFGGGTKLTVL
B16: SR-AB50-HuFab (Fab, V domains shown)
VH: QVQLVESGGGVVQPGRSLRLSCAASGFTFRSYVMHWVRQAPGKGLEWVAVISHEGSGKYYADSVKGRFTISRDNSKNTLYLQMNSLRAEDTAVYYCARPRIAARRGGFGTWGQGTLVTVSS
VL: NFMLTQPHSVSESPGKTVTISCTRSSGNIDYNYVQWYQQRPGSSPTTVIYEDNVRPSGVPDRFSGSIDSSSNSASLTISGLKTEDEADYYCQSYDSDNQRVVFGGGTKLTVL
B17: SR-AB42-HuFab (Fab, V domains shown)
VH: QVQLVESGGGVVQPGRSLRLSCAASGFTFRSYVMHWVRQAPGKGLEWVAVISHEGSLKYYADSVKGRFTISRDNSKNTLYLQMNSLRAEDTAVYYCARPRIAARRGGFGYWGQGTLVTVSS
VL: NFMLTQPHSVSESPGKTVTISCTRSSGNIDNNYVQWYQQRPGSSPTTVIYEDNQRPSGVPDRFSGSIDSSSNSASLTISGLKTEDEADYYCQSYDYDTQGVVFGGGTKLTVL
B18: SR-AB23 Fab (Fab, V domains shown)
VH: QVQLVESGGGVVQPGRSLRLSCAASGFTFRSYVMHWVRQAPGKGLEWVAVISHEGSLKYYADSVKGRFTISRDNSKNTLYLQMNSLRAEDTAVYYCARPRIAARRGGFGYWGQGTLVTVSS
VL: NFMLTQPHSVSESPGKTVTISCTRSSGNIDNNYVQWYQQRPGSSPTTVIYEDNQRPSGVPDRFSGSIDSSSNSASLTISGLKTEDEADYYCQSYDSDNQGVVFGGGTKLTVL
B19: SR-AB51-HuFab (Fab, V domains shown)
VH: QVQLVESGGGVVQPGRSLRLSCAASGFTFRSYVMHWVRQAPGKGLEWVAVISHEGSGKYYADSVKGRFTISRDNSKNTLYLQMNSLRAEDTAVYYCARPRIAARRGGFGTWGQGTLVTVSS
VL: NFMLTQPHSVSESPGKTVTISCTRSSGNIDYNYVQWYQQRPGSSPTTVIYEDNVRPSGVPDRFSGSIDSSSNSASLTISGLKTEDEADYYCQSYDYDNQAVVFGGGTKLTVL
B20: SR-AB59-HuFab (Fab, V domains shown)
VH: QVQLVESGGGVVQPGRSLRLSCAASGFTFRSYVMHWVRQAPGKGLEWVAVISHEGSGKYYADSVKGRFTISRDNSKNTLYLQMNSLRAEDTAVYYCALPRIAARRGGFGTWGQGTLVTVSS
VL: NFMLTQPHSVSESPGKTVTISCTRSSGNIDYNYVQWYQQRPGSSPTTVIYEDNVRPSGVPDRFSGSIDSSSNSASLTISGLKTEDEADYYCQSYDYDNQAVVFGGGTKLTVL

The test deals with LTBP-proTGFβ1 in the LN229 CAGA12 assay of Table 20 (endogenous or over-expressed murine LTBP1 not stated). Put plainly: cell-based or functional assay.
Regarding B1, the IC50 (CAGA12 luciferase) came to 0.186 nM.

On to B2, for which the IC50 (CAGA12 luciferase) stood at 1.18 nM.

B3 came in with an IC50 (CAGA12 luciferase) of 1.08 nM.

In turn, B4 gave an IC50 (CAGA12 luciferase) of 0.775 nM.

Consider B5, for which the IC50 (CAGA12 luciferase) turned out to be 5.87 nM.

Consider B6, for which the IC50 (CAGA12 luciferase) was 0.439 nM.

B7 returned an IC50 (CAGA12 luciferase) of 1.02 nM.

In turn, B8 gave an IC50 (CAGA12 luciferase) of 4.86 nM.

B9: the IC50 (CAGA12 luciferase) was 0.536 nM.

B10 displayed an IC50 (CAGA12 luciferase) of 0.495 nM.

B11 showed an IC50 (CAGA12 luciferase) of 0.486 nM.

The molecule B12 showed an IC50 (CAGA12 luciferase) of 0.47 nM.

In the case of B13, the IC50 (CAGA12 luciferase) is 0.523 nM.

Molecule B14 gave an IC50 (CAGA12 luciferase) of 0.742 nM.

In turn, B15 returned an IC50 (CAGA12 luciferase) of 0.459 nM.

On to B16, for which the IC50 (CAGA12 luciferase) was determined as 11 nM.

B17: the IC50 (CAGA12 luciferase) is 0.667 nM.

The molecule B18 yielded an IC50 (CAGA12 luciferase) of 8.53 nM.

B19 displayed an IC50 (CAGA12 luciferase) of 0.535 nM.

Molecule B20 registered an IC50 (CAGA12 luciferase) of 0.195 nM.
